According to article PMC4558008, “Yeast Mitochondrial Transcription Factor Mtf1 Determines the Precision of Promoter-Directed Initiation of RNA Polymerase Rpo41” (PLoS ONE, 2015):
Blank lines part the entries; values can stand above or below the binder they belong to.

B1: Rpo41 ΔN393 (N-terminal 393 residues removed, 958 aa) (domain or fragment, yeast, UniProt P13433 394-1351, looked up)
chain: SLPTLEEKKAFESALNIFNQDRQKVLENRATEAARERWKHDFEEAKARGDISIEKNLNVKLWKWYNEMLPLVKEEINHCRSLLSEKLSDKKGLNKVDTNRLGYGPYLTLIDPGKMCVITILELLKLNSTGGVIEGMRTARAVISVGKAIEMEFRSEQVLKSESQAFRDVNKKSPEFKKLVQNAKSVFRSSQIEQSKILWPQSIRARIGSVLISMLIQVAKVSVQGVDPVTKAKVHGEAPAFAHGYQYHNGSKLGVLKIHKTLIRQLNGERLIASVQPQLLPMLVEPKPWVNWRSGGYHYTQSTLLRTKDSPEQVAYLKAASDNGDIDRVYDGLNVLGRTPWTVNRKVFDVVSQVWNKGEGFLDIPGAQDEMVLPPAPPKNSDPSILRAWKLQVKTIANKFSSDRSNRCDTNYKLEIARAFLGEKLYFPHNLDFRGRAYPLSPHFNHLGNDMSRGLLIFWHGKKLGPSGLKWLKIHLSNLFGFDKLPLKDRVAFTESHLQDIKDSAENPLTGDRWWTTADKPWQALATCFELNEVMKMDNPEEFISHQPVHQDGTCNGLQHYAALGGDVEGATQVNLVPSDKPQDVYAHVARLVQKRLEIAAEKGDENAKILKDKITRKVVKQTVMTNVYGVTYVGATFQIAKQLSPIFDDRKESLDFSKYLTKHVFSAIRELFHSAHLIQDWLGESAKRISKSIRLDVDEKSFKNGNKPDFMSSVIWTTPLGLPIVQPYREESKKQVETNLQTVFISDPFAVNPVNARRQKAGLPPNFIHSLDASHMLLSAAECGKQGLDFASVHDSYWTHASDIDTMNVVLREQFIKLHEVDLVLRLKEEFDQRYKNYVKIGKLKRSTDLAQKIIRIRKDLSRKLGRSTTLADEIYFEKKRQELLNSPLIEDRNVGEKMVTTVSLFEDITDLDALELENGGDENSGMSVLLPLRLPEIPPKGDFDVTVLRNSQYFFS
notes: printed length 958 aa (theoretical 111 kDa); source: E. coli Rosetta cells, purified (same method as His-Rpo41: Ni-NTA, Superdex 200 gel filtration)
B2: Yeast mitochondrial transcription factor Mtf1 (His-Mtf1) (natural protein, UniProt P14908 2-341, looked up)
chain: SVPIPGIKDISKLKFFYGFKYLWNPTVYNKIFDKLDLTKTYKHPEELKVLDLYPGVGIQSAIFYNKYCPRQYSLLEKRSSLYKFLNAKFEGSPLQILKRDPYDWSTYSNLIDEERIFVPEVQSSDHINDKFLTVANVTGEGSEGLIMQWLSCIGNKNWLYRFGKVKMLLWMPSTTARKLLARPGMHSRSKCSVVREAFTDTKLIAISDANELKGFDSQCIEEWDPILFSAAEIWPTKGKPIALVEMDPIDFDFDVDNWDYVTRHLMILKRTPLNTVMDSLGHGGQQYFNSRITDKDLLKKCPIDLTNDEFIYLTKLFMEWPFKPDILMDFVDMYQTEHSG
notes: Mtf1, yeast mitochondrial transcription factor (theoretical 40 kDa); the printed PCR primers run from the codon after the start methionine (TCT GTT CCA ATC CCT: S V P I P) to the stop codon; Subcloned into pTrcHisC (Invitrogen) between NheI and HindIII; the vector's leader with the His tag precedes the protein; source: E. coli Rosetta cells, purified

Key:
[1] = target: B2; test: cell-based or functional assay
[2] = target: B2; test: SEC; analytical gel filtration (Superdex), 1 μM Rpo41 (wild-type or ΔN393), 2 μM Mtf1 and 3 μM 20 bp duplex DNA with the 14S rRNA promoter; peak fractions on SDS-PAGE with densitometry; apparent Kd in the presence of DNA; 40 mM Tris-HCl pH 7.9, 150 mM NaCl, 0.1% Tween 20, 15% glycerol, 1 mM EDTA, 1 mM DTT; details: both partners purified
[3] = target: B1; test: as above; details: both partners purified
[4] = target: B1; test: SEC; analytical gel filtration (Superdex), 2.8 μM Rpo41 (wild-type or ΔN393) with 5.6 μM Mtf1, no DNA; peak fractions on SDS-PAGE with densitometry; apparent Kd; 40 mM Tris-HCl pH 7.9, 150 mM NaCl, 0.1% Tween 20, 15% glycerol, 1 mM EDTA, 1 mM DTT; details: both partners purified
[5] = target: B2; test: as above; details: both partners purified
[6] = target: B2; test: SEC; analytical gel filtration (Superdex), 1 μM Rpo41 (wild-type or ΔN393), 2 μM Mtf1 and 3 μM 20 bp duplex DNA with the 14S rRNA promoter; peak fractions on SDS-PAGE with densitometry; apparent Kd in the presence of DNA; 40 mM Tris-HCl pH 7.9, 150 mM NaCl, 0.1% Tween 20, 15% glycerol, 1 mM EDTA, 1 mM DTT; details: both partners purified; remark: listed apart in the source
[7] = target: B2; test: SEC; analytical gel filtration (Superdex), 2.8 μM Rpo41 (wild-type or ΔN393) with 5.6 μM Mtf1, no DNA; peak fractions on SDS-PAGE with densitometry; apparent Kd; 40 mM Tris-HCl pH 7.9, 150 mM NaCl, 0.1% Tween 20, 15% glycerol, 1 mM EDTA, 1 mM DTT; details: both partners purified; remark: listed apart in the source

Binder: B1
- activity of the holoenzyme on the 70 bp linear 14S rRNA promoter template, relative to the wild-type enzyme [1]: 20%
- stoichiometry N [2]: 1

Binder: B2
- Kd [3]: 600 nM
- Kd [4]: 13000 nM

- stoichiometry N [5]: 1
- Kd [6]: 20 nM
- Kd [7]: 4000 nM
B3: Yeast mitochondrial RNA polymerase Rpo41, wild-type (His-Rpo41) (enzyme)
chain: MLRPAYKSLVKTSLLQRRLISSKGSKLFKPSPDSTSTILISEDPLVTGSSPTSSTTSGIISSNDFPLFNKNRKDAKSSISYQWKNPSELEFDPFNKSHASAVTSMTRTRDVMQLWSLLEACLQSNLMKRAFSILESLYLVPEHKQRFIEDYNMYLNSFSKNDPNFPILKMNEKLTNDLETSFKDVNYNDKTLAIMIHHALNFHSTTSSMLLKPIISAYLKMSVNGIREIFSCLDILTISDLNILMNDLKVITPSQLPNSVRPILESLTLSPTPVNNIENEEGLNKVEAENDSKLHKASNASSDSIKKPSLDPLREVSFHGSTEVLSKDAEKLIAVDTIGMRVIRHTLLGLSLTPEQKEQISKFKFDANDNVLKMKPTKNDDNNNSINFFEIYNSLPTLEEKKAFESALNIFNQDRQKVLENRATEAARERWKHDFEEAKARGDISIEKNLNVKLWKWYNEMLPLVKEEINHCRSLLSEKLSDKKGLNKVDTNRLGYGPYLTLIDPGKMCVITILELLKLNSTGGVIEGMRTARAVISVGKAIEMEFRSEQVLKSESQAFRDVNKKSPEFKKLVQNAKSVFRSSQIEQSKILWPQSIRARIGSVLISMLIQVAKVSVQGVDPVTKAKVHGEAPAFAHGYQYHNGSKLGVLKIHKTLIRQLNGERLIASVQPQLLPMLVEPKPWVNWRSGGYHYTQSTLLRTKDSPEQVAYLKAASDNGDIDRVYDGLNVLGRTPWTVNRKVFDVVSQVWNKGEGFLDIPGAQDEMVLPPAPPKNSDPSILRAWKLQVKTIANKFSSDRSNRCDTNYKLEIARAFLGEKLYFPHNLDFRGRAYPLSPHFNHLGNDMSRGLLIFWHGKKLGPSGLKWLKIHLSNLFGFDKLPLKDRVAFTESHLQDIKDSAENPLTGDRWWTTADKPWQALATCFELNEVMKMDNPEEFISHQPVHQDGTCNGLQHYAALGGDVEGATQVNLVPSDKPQDVYAHVARLVQKRLEIAAEKGDENAKILKDKITRKVVKQTVMTNVYGVTYVGATFQIAKQLSPIFDDRKESLDFSKYLTKHVFSAIRELFHSAHLIQDWLGESAKRISKSIRLDVDEKSFKNGNKPDFMSSVIWTTPLGLPIVQPYREESKKQVETNLQTVFISDPFAVNPVNARRQKAGLPPNFIHSLDASHMLLSAAECGKQGLDFASVHDSYWTHASDIDTMNVVLREQFIKLHEVDLVLRLKEEFDQRYKNYVKIGKLKRSTDLAQKIIRIRKDLSRKLGRSTTLADEIYFEKKRQELLNSPLIEDRNVGEKMVTTVSLFEDITDLDALELENGGDENSGMSVLLPLRLPEIPPKGDFDVTVLRNSQYFFS
